Assay results as given in US20180362926.

Columns and labels:
Assay in all cases: cell_activity
[1] = tested on: SBS68879 ZFN Qm5 in F1,F3,F5; FokI K525S; details: 55266-2A-68879, T cells, 12 ug mRNA
[2] = tested on: SBS68815 ZFN Qm5 in F1,F3,F5; FokI R416E; details: 55266-2A-68815, T cells, 12 ug mRNA
SBS55287 ZFN = details: pair 53856:55287, K562, 500 ng/ZFN
SBS53863 ZFN = details: pair 53860:53863, K562, 500 ng/ZFN
SBS72748 ZFN FokI Q481D = details: pair 72748/68957, background corrected
SBS57071 ZFN = details: pair 57071/68957, background corrected
SBS55204 ZFN = details: pair 55204:53759, K562, 500 ng/ZFN
SBS53785 ZFN = details: pair 55229:53785, K562, 500 ng/ZFN
SBS53810 ZFN = details: pair 53810:55255, K562, 500 ng/ZFN
SBS52742 ZFN = details: pair 52774:52742, K562, 500 ng/ZFN
SBS53909 ZFN = details: pair 53885:53909, K562, 500 ng/ZFN
SBS55229 ZFN = details: pair 55229:53785, K562, 500 ng/ZFN
SBS55254 ZFN = details: pair 55248:55254, K562, 500 ng/ZFN
[3] = tested on: SBS68812 ZFN Qm5 in F1,F3 (nQm5s [sic]),F4; FokI R416E; details: 68812-2A-68813, T cells, 12 ug mRNA
[4] = tested on: SBS68876 ZFN Qm5 in F1,F3 (nQm5s [sic]),F4; FokI K525S; details: 68876-2A-68877, T cells, 12 ug mRNA
SBS55255 ZFN = details: pair 53810:55255, K562, 500 ng/ZFN
[5] = tested on: SBS68796 ZFN Qm5 in F1,F3 (nQm5s [sic]),F4; details: 68796-2A-68813, T cells, 12 ug mRNA; off-target at background
SBS55260 ZFN = details: pair 55248:55260, K562, 500 ng/ZFN
SBS53759 ZFN = details: pair 55204:53759, K562, 500 ng/ZFN
SBS57531 ZFN = details: pair 72732/57531, background corrected
SBS68957 ZFN FokI K525S = details: pair 57071/68957, background corrected

“AACAGGTAAGACAGGGGTCTAGCCTGGG (double strand) [TCRA site E right]” showed an activity [1] of 96.3 % indels and an activity [2] of 97.6 % indels.

Work on “TTCAAGAGCAACAGTGCTGTGGCCTGGA (double strand) [TCRA site F right]” yielded an activity (SBS55287 ZFN) of 74.8 % NHEJ and an activity (SBS53863 ZFN) of 87.3 % NHEJ.

Sequence “GCCACGGAGCGAGACATCTCGGCCCGAA (double strand) [B2M site of 57071]” has an activity (SBS72748 ZFN FokI Q481D) of 93.4 % indels and an activity (SBS57071 ZFN) of 91.6 % indels.

In the case of “TTGCTCTTGAAGTCCATAGACCTCATGT (double strand) [TCRA site of 55204]”, the activity (SBS55204 ZFN) is reported as 87.7 % NHEJ.

“CTGTGGCCTGGAGCAACAAATCTGACTT (double strand) [TCRA site of 53785]” showed an activity (SBS53785 ZFN) of 93.6 % NHEJ.

With “AGGATTCGGAACCCAATCACTG (double strand) [TCRA site of 53810]” the activity (SBS53810 ZFN) was 91.5 % NHEJ.

Work on “TCCTCCTGAAAGTGGCCGGGTTTAATCT (double strand) [TCRA site G right]” yielded an activity (SBS52742 ZFN) of 84.4 % NHEJ and an activity (SBS53909 ZFN) of 90.2 % NHEJ.

“CTGTTGCTCTTGAAGTCCATAGACCTCA (double strand) [TCRA site of 55229]” was tested, and the activity (SBS55229 ZFN) was 93.6 % NHEJ.

Work on “CTCCTGAAAGTGGCCGGGTTTAATCTGC (double strand) [TCRA site D left]” yielded an activity (SBS55254 ZFN) of 96.2 % NHEJ, an activity [3] of 99.9 % indels and an activity [4] of 99.2 % indels. For the same sequence, the activity (SBS55255 ZFN) was 91.5 % NHEJ, the activity [5] was 99.3 % indels and the activity (SBS55260 ZFN) was 93 % NHEJ.

“GTGCTGTGGCCTGGAGCAACAAATCTGA (double strand) [TCRA site of 53759]” was tested, and the activity (SBS53759 ZFN) was 87.7 % NHEJ.

“GAGTAGCGCGAGCACAGCTAAGGCCACG (double strand) [B2M site of 57531]” was tested, and the activity (SBS57531 ZFN) was 95.8 % indels and the activity (SBS68957 ZFN FokI K525S) was 91.6 % indels.
